Data as given in US20220119517A1 (NANJING SANHOME PHARMACEUTICAL, published 2022).
Changes are numbered by the printed parent chain. Where two headings read alike, the source gives them in different places. Blank lines part the entries; values can stand above or below the binder they belong to.

Legend:
[1] = target: T1, human Claudin18.1 (CLDN18.1), full length, on cells (human, UniProt P56856 1-261); assay: cellular ELISA, hybridoma supernatant on fixed HEK293-CLDN18.1 cells
T1 construct: HEK293-CLDN18.1 cells carry a fusion with green fluorescent protein (ZsGreen); CHO-K1-CLDN18.1 cells carry pcDNA3.1-CLDN18.1; The cell line is named under assay; also called CLDN18.1-FL; HEK293-CLDN18.1 cells
Method: (§1) HEK293-CLDN18.1 and HEK293-CLDN18.2 cells were cultured separately with DMEM complete culture medium containing 10% fetal bovine serum at 37° C., 5% CO₂. When the cells grew to 80%-90% confluency, they were digested with 0.5 mM EDTA-PBS non-trypsin digestion solution at room temperature, and centrifuged at 1000 rpm for 5 minutes, the supernatant was discarded. Resuspended in DMEM complete culture medium, and the cell concentration was adjusted to 6×10⁵ cells/ml. Cells were plated on 96-well cell plates (Corning) pre-coated with polylysine, 100 μl per well, incubated at 37° C., 5% CO₂ for 24 hours, making cells evenly and completely plated on the bottom of the well. The culture supernatant was aspirated, and the cells were fixed with 4% paraformaldehyde at room temperature for 20 minutes, washed 3 times with 200 μl PBS, 2 minutes at each time. The well plates were blocked with 200 μl of 3% BSA-PBS at 37° C. for 1 hour. […] of subclone culture supernatant was taken and added into the well plate, incubated at 37° C. for 1 hour, washed 5 times with PBS. Incubation with HRP-anti mouse IgG+IgM (Jackson) diluted 1:10000 in blocking solution was performed at 37° C. for 1 hour followed by washing 5 times with PBS. 100 μl of TMB one-component color developing solution was added, protected from light at room temperature for 5-10 minutes, terminated with 2M sulfuric acid, and OD450 was read on the microplate reader. The results are shown in Table 3, subclones of which the hybridoma culture supernatant show strong positive binding to CLDN18.2 (that is, the OD value is 50% higher than the OD value of the positive control) include: S3F10C5, S5H3A6, S5H3B6, S5H3D6, S6F10E7, S6H9B8, S6H9C8, C40B10D9, C42B12D10 and C58B11E11. Among these subclones, S5H3A6, S5H3B6, S5H3D6, C40B10D9, C42B12D10 and C58B11E11 show negative binding to CLDN18.1 cells.

[2] = target: T2, human Claudin18.2 (CLDN18.2), full length, on cells (human); assay: cellular ELISA, hybridoma supernatant on fixed HEK293-CLDN18.2 cells
T2 construct: also called CLDN18.2-FL; HEK293-CLDN18.2 cells
Method: as §1

[3] = target: T2, human Claudin18.2 (CLDN18.2), full …; assay: cell-based or functional assay
[4] = target: T2, human Claudin18.2 (CLDN18.2), full …; assay: cellular ELISA on fixed HEK293-CLDN18.2 cells
Method: HEK293-CLDN18.1 and HEK293-CLDN18.2 cells were resuscitated two weeks in advance, cultured with DMEM complete culture medium containing 10% fetal bovine serum at 37° C., 5% CO₂. When the cells grew to 80%-90% confluency, they were digested with 0.5 mM EDTA-PBS (Sigma) at room temperature, centrifuged at 1000 rpm for 5 minutes, the supernatant was discarded. Cells were resuspended in DMEM complete culture medium, the cell concentration was adjusted to 6×10⁵ cells/ml. Cells were plated on 96-well cell plates (Corning) pre-coated with polylysine at 2.5 μg/well, 100 μl per well, incubated at 37° C., 5% CO₂ for 24 hours, making cells evenly and completely plated on the bottom of the well. The supernatant was aspirated, and the cells were fixed with 4% paraformaldehyde at room temperature for 20 minutes, washed 3 times with 200 μl PBS, 2 minutes at each time. The well plates were blocked with 200 μl of 3% BSA-PBS at 37° C. for 1 hour. Each chimeric antibody was diluted with 3% BSA-PBS to a concentration of 6 μg/ml, and diluted in a 6-fold gradient to a total of 7 concentrations. At the same time, IMAB362-similar-hG1 diluted in the same concentration gradient as the positive control, and human IgG1, kappa isotype control antibody (hereinafter referred to as Isotype, provided by CrownBio (Taicang) Co., Ltd.) as the negative control were added to HEK293-CLDN18.2 and HEK293-CLDN18.1 cell plates, respectively. The cells were incubated at 37° C. for 1 hour, washed 5 times with PBS. Incubation with HRP-anti human IgG (Jackson) diluted 1:10000 in blocking solution was performed at 37° C. for 1 hour followed by washing 5 times with PBS. 100 μl of TMB one-component color developing solution was added, protected from light at room temperature for 5-10 minutes, terminated with 50 μl of 2M sulfuric acid, OD450 was read on the microplate reader. Data processing: the original data was put into GraphPad 5.0 software for plotting and calculation.

[5] = target: T1, human Claudin18.1 (CLDN18.1), full …; assay: FACS on CHO-K1-CLDN18.1 cells
Source text: Human gastric cancer cells NUGC4 and stably transfected cells CHO-K1-CLDN18.1 (prepared in Example 5) were used respectively, to verify the specificity and affinity of the anti-CLDN18.2 antibodies above at the cellular level by FAGS technology. After antibody affinity maturation and screening in vitro, each antibody can bind to the CLDN18.2 target on NUGC4 cells, but not to CHO-K1-CLDN18.1 cells, as compared with the original 3CHI antibody.

[6] = target: T2, human Claudin18.2 (CLDN18.2), full …; assay: cell-based or functional assay; remark: listed apart in the source

OD450 [1]: 0.114 OD | binding result [1]: no binding | OD450 [2]: 0.664 OD
B1: C40B10D9 (antibody, mouse IgM, V domains shown)
VH: QVQLKESGPGLVAPSQSLSITCTVSGFSLTSYGVSWVRQPPGKGLEWLGVIWGDGSTNYHSALISRLSISKDNSKSQVFLKLNSLQTDDTATYYCAGGLRLWFAYWGQGTLVTVSA
VL: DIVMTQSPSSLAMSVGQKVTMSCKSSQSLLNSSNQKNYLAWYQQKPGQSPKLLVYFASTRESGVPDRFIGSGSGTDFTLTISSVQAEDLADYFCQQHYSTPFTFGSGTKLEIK
notes: Hybridoma supernatant antibody; murine IgM, kappa; also called subclone C40B10D9

OD450 [1]: 1.5 OD | OD450 [2]: 2.35 OD
B2: S6H9B8 (antibody, mouse IgG3, V domains shown)
VH: QVQLQQSGAELARPGASVKLSCKASGYTFTSYGISWVKQRTGQGLEWIGEIYPRSGNTYYNEKFKGKATLTADKSSSTAYMELRSLTSEDSAVYFCASLAWFAYWGQGTLVTVSA
VL: DIVMTQAAPSVPVTPGESVSISCRSSKSLLHSNGNTYLYWFLQRPGQSPQLLIYRMSNLASGVPDRFSGSGSGTAFTLRISRVEAEDVGVYYCMQHLEYPYTFGGGTKLEIK
notes: Hybridoma supernatant antibody; murine IgG3, kappa; also called subclone S6H9B8

OD450 [1]: 0.2 OD | OD450 [2]: 0.343 OD
B3: B4B10G3 (antibody, V domains shown)
VH: QIQLVQSGPELKKPGETVKISCKASGYTFTNYGMNWVKQAPGKGLKWMGWINTYTGEPTYADDFKGRFAFSLETSASTAYLQINNLKNEDMATYFCARDGQLGLRFAYWGQGTLVTVSA
VL: NIMMTQSPSSLAVSAGEKVTMSCKSSQSVLYSSNQKNYLAWYQQKPGQSPKLLIYWASTRESGVPDRFTGSGSGTDFTLTISSVQAEDLAVYYCHQYLSSRTFGGGTKLEIK
notes: Hybridoma supernatant antibody; murine IgG2b, kappa; also called subclone B4B10G3

ADCC activity by luciferase labeling, EC50 [3]: 0.44 nM | ADCC activity by luciferase labeling, Top [3]: 98400
B4: 5M (antibody, human IgG1, kappa)
heavy: QVQLQQPGAELVRPGASVKLSCKASGYTFTSYWINWVKQRPGQGLEWIGNIYPSDSYTNYNQKFKDKATLTVDKSSSTAYMQLSSPTSEDSAVYYCTRSWRGNSFDYWGQGTTLTVSSASTKGPSVFPLAPSSKSTSGGTAALGCLVKDYFPEPVTVSWNSGALTSGVHTFPAVLQSSGLYSLSSVVTVPSSSLGTQTYICNVNHKPSNTKVDKKVEPKSCDKTHTCPPCPAPELLGGPSVFLLPPKPKDTLMISRTPEVTCVVVDVSHEDPEVKFNWYVDGVEVHNAKTKPPEEQYNSTLRVVSILTVLHQDWLNGKEYKCKVSNKALPAPIEKTISKAKGQPREPQVYTLPPSRDELTKNQVSLTCLVKGFYPSDIAVEWESNGQPENNYKTTPLVLDSDGSFFLYSKLTVDKSRWQQGNVFSCSVMHEALHNHYTQKSLSLSPGK
light: DIVMTQSPSSLTVTAGEKVTMSCKSSQSLLNSGNQKNYLTWYQQKPGQPPKLLIYWASTRESGVPDRFTGSGSGTDFTLTISSVQAEDLAVYYCQNDYSYPFTFGSGTKLEIKRTVAAPSVFIFPPSDEQLKSGTASVVCLLNNFYPREAKVQWKVDNALQSGNSQESVTEQDSKDSTYSLSSTLTLSKADYEKHKVYACEVTHQGLSSPVTKSFNRGEC

OD450 [1]: 0.152 OD | binding result [1]: no binding | OD450 [2]: 1.38 OD
B5: S5H3B6 (antibody, mouse IgM, V domains shown)
VH: EVKLVESGGGLVQPGGSLKLSCAASGFTFSDYGMAWVRQAPRKGPEWVAFISNLAYSIYYADTVTGRFTISRENAKNTLYLEMSSLRSEDTAMYYCARLGYGNSFAYWGQGTLVTVSA
VL: DIVMTQSPSSLTVTAGEKVTMSCKSSQSLLNSGNQKNYLTWYQQKPGQPPKLLIYWASTRESGVPDRFTGSGSGTDFTLTISSVQAEDLAVYYCQNDYSYPLTFGAGTKLELK
notes: Hybridoma supernatant antibody; murine IgM, kappa; also called subclone S5H3B6

EC50 [4]: 29.9 nM
B6: 19CHI (antibody, V domains shown)
VH: QVQLQQSGAELVKPGASVKMSCKASGYTFTTYPIEWMKQNHGKSLEWIGNFHPYNDDTKYNEKFKGKATLTVEKSSSTVYLELSRLTSDDSAVYYCARRGYGSSYAMDYWGQGTSVTVSS
VL: B5 VL with T12S, T14S, T40A, W56G, Y98H, L102Y, A106G, L112I
notes: Human-murine chimeric antibody with the constant region of human IgG1; also called chimeric antibody of C42B12D10

OD450 [2]: 0.76 OD
B7: C42B12D10 (antibody, mouse IgM, V domains shown)
VH: B6 VH
VL: B5 VL with T12S, T14S, T40A, W56G, Y98H, L102Y, A106G, L112I
notes: Hybridoma supernatant antibody; murine IgM, kappa; also called subclone C42B12D10

MFI (CLDN18.1) [5]: 14500 MFI | EC50 [4]: 2.44 nM
B8: 17CHI (antibody, V domains shown)
VH: EVQLQQSGPELVKPGASVKMSCKASGYTFTDYNMHWVKQSHGKSLEWIGYINPNNGGTSYNQKFKGKATLTVNKSSSTAYMELRSLTSEDSAVYYCARIYYGNSFAYWGQGTLVTVSA
VL: B5 VL with L102F, A106S, L112I
notes: Human-murine chimeric antibody with the constant region of human IgG1; also called chimeric antibody of C58B11E11

OD450 [2]: 0.671 OD
B9: C58B11E11 (antibody, mouse IgG2c, V domains shown)
VH: B8 VH
VL: B5 VL with L102F, A106S, L112I
notes: Hybridoma supernatant antibody; murine IgG2c, kappa; also called subclone C58B11E11

ADCC activity by luciferase labeling, EC50 [6]: 0.11 nM | ADCC activity by luciferase labeling, Top [6]: 65100
B10: Hu330-2 (antibody, V domains shown)
VH: EVQLVESGGGLVQPGGSLRLSCAASGFGFSDYGMAWVRQAPGKGLEWVSFISNSAYSIYYADTVTGRFTISRDNAKNSLYLQMNSLRAEDTAVYYCARLGRGNSFAYWGQGTLVTVSS
VL: EIVMTQSPPTLSLSPGERVTLSCKSSQSLLNSGNQKNYLTWYQQKPGQAPRLLIYWGSTRESSIPARFSGSGSGTDFTLTISSLQPEDLAVYYCQNELFYPLTFGQGTKLEIK
